Results: US20140212439A1 (Daiichi Sankyo, published 2014)

Tests used:
[1] = molecular target: T1, bovine serum albumin (bovine, UniProt P02769 25-607); test: ELISA on plate-coated BSA
T1 construct: Control protein in the ELISA; also called BSA
Protocol: A solution of an EPHA2 extracellular region polypeptide (manufactured by R&D Systems, Inc., #3035-A2-100) or bovine serum albumin (in the description below and the figures, abbreviated to “BSA”) as a control diluted to 1 μg/ml with PBS was dispensed at 100 μl/well onto an immunoplate (manufactured by Nunc, #442404) and incubated overnight at 4° C. to thereby adsorb the protein to the plate.
The plate was incubated at room temperature for 1 hour. Then, the solution in the wells was removed, and the wells were washed twice with Diluting Buffer. Goat anti-Mouse IgG, Peroxidase Conjugated (manufactured by Millipore (Chemicon), #AP181P) diluted 1000 times with Diluting Buffer was added at 100 μl/well and incubated at room temperature for 1 hour. The solution in the wells was removed, and the wells were washed twice with Diluting Buffer. Then, a color reaction was performed with stirring by the addition of OPD Color Developing Solution at 100 μl/well. After color development, the color reaction was terminated by the addition of 1 M HCl at 100 μl/well. The absorbance at 490 nm was measured using a plate reader (FIG. 7).

[2] = molecular target: human EPHA2 expressed on cells (human, UniProt P29317 24-976); test: cell-based or functional assay
Sequence of human EPHA2 expressed on cells (P29317 24-976 limits assumed): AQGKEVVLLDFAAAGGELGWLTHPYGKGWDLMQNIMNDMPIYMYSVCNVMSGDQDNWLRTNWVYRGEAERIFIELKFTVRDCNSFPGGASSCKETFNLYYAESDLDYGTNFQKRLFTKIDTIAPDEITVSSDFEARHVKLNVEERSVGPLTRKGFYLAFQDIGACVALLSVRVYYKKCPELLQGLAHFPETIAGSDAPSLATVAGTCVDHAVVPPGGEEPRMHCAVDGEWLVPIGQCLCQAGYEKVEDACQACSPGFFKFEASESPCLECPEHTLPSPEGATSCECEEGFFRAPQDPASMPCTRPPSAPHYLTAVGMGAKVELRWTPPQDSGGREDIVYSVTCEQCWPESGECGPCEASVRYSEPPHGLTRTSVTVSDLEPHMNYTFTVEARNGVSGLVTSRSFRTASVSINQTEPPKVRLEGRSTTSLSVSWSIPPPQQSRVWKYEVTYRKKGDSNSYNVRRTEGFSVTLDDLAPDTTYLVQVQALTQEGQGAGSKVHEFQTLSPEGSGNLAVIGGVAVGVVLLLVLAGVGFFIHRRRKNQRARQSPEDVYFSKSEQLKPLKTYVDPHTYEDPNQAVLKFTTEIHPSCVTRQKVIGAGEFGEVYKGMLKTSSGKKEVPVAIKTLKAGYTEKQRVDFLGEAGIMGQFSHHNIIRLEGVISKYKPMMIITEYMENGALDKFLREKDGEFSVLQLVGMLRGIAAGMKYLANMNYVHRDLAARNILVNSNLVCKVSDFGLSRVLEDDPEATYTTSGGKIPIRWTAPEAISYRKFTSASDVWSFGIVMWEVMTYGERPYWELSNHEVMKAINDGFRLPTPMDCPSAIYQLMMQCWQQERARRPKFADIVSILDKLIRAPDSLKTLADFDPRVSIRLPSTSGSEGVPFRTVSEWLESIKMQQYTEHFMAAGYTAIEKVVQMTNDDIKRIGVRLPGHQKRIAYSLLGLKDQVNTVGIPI

T1 sequence (P02769 25-607 limits assumed): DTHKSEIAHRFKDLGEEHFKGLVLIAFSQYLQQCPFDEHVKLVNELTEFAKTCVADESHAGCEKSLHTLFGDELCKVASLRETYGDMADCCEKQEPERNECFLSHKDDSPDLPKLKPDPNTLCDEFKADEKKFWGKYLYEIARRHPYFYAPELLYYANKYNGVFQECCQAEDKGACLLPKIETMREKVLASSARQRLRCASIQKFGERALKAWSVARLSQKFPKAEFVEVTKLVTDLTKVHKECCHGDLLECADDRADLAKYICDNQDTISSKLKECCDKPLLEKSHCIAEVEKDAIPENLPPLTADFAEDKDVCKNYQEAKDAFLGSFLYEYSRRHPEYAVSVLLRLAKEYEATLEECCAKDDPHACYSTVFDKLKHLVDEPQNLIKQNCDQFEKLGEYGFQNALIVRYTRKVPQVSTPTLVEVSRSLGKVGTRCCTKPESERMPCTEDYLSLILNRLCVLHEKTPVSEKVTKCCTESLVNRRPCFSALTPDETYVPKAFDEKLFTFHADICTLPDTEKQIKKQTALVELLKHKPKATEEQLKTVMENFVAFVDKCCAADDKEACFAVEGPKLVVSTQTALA

B1: SH348-1 (antibody produced by hybridoma SH348-1, FERM BP-10836) (antibody, mouse IgG2a, kappa, V domains shown)
VH: QIQLVQSGPELKKPGETVKISCKASGYTFTHYSMHWVKQAPGKGLKWMGWINTYTGEPTYADDFKGRFAFSLETSASTAFLQINNLKNEDTATYFCATYYRYERDFDYWGQGTTLTVSS
VL: DVLMTQSPLSLPVSLGDQASISCRSSQSIVHSNGNTYLEWYLQKPGQSPKLLIYKVSNRFSGVPDRFSGSGSGTDFTLRISRVEAEDLGVYYCFQGSHVPYTFGGGTKLEIKR
modifications: N-terminal pyroglutamic acid
notes: Mouse monoclonal IgG2a, kappa; The ends of the cDNAs are primer-derived; also called bSH348-1 (biotinylated form)
binding result [1]: no binding (tested: up to 125 µg/ml)
EPHA2 protein level after 24 hours, EPHA2/β-actin band intensity relative to mIgG2a (100%), with cross-linking antibody [2]: 69%
EPHA2 protein level after 24 hours, EPHA2/β-actin band intensity relative to mIgG2a (100%), without cross-linking antibody [2]: 70%

B2: SH357-1 (antibody produced by hybridoma SH357-1, FERM BP-10837) (antibody, mouse IgG2a, kappa, V domains shown)
VH: QIQLVQSGPELKKPGETVKISCKASGYTFIDYSMHWVKQAPGKGLKWMGWINTYTGEPTYSDDFKGRFAFSLETSASTAYLQISNLKNEDTASYFCATYYRYERDFDYWGQGTTLTVSS
VL: DVLMTQTPLSLPVSLGDQASISCRSSQSIVHSSGITYLEWYLQKPGQSPKLLIYKVSNRFSGVPDRFSGSGSGTDFTLKISRVEAEDLGVYYCFQGSHVPYTFGGGTKLEIKR
notes: Mouse monoclonal IgG2a, kappa; also called bSH357-1 (biotinylated form)
binding result [1]: no binding (tested: up to 125 µg/ml)
